In PMC6826200:

B1: wild-type FICD (amino acid residues 104-445) [human] / itself (parent)
chain: LEARAALNQALEMKRQGKREKAQKLFMHALKMDPDFVDALTEFGIFSEEDKDIIQADYLYTRALTISPYHEKALVNRDRTLPLVEEIDQRYFSIIDSKVKKVMSIPKGNSALRRVMEETYYHHIYHTVAIEGNTLTLSEIRHILETRYAVPGKSLEEQNEVIGMHAAMKYINTTLVSRIGSVTISDVLEIHRRVLGYVDPVEAGRFRTTQVLVGHHIPPHPQDVEKQMQEFVQWLNSEEAMNLHPVEFAALAHYKLVYIHPFIDGNGRTSRLLMNLILMQAGYPPITIRKEQRSDYYHVLEAANEGDVRPFIRFIAKCTETTLDTLLFATTEYSVALPEAQP

Variants of: B1
Test: size-exclusion chromatography (peak elution time vs protein concentration, monomer-dimer association fit)
Details: with itself; non-oxidised protein; parent: 55 nM
A Kd of 831 nM was found for chain 1 A149C C318S in this work.
